Reference: patent publication WO2005085862A1 (dated 2005)

Target: T1, human Glucose-regulated protein 78 (Grp78) (human, UniProt P11021 19-654)
T1 construct: whole, on cells; also called Grp78/Bip; cell surface localized Grp78
Experiment: western blot of whole cell extracts with purified scFv

T1 sequence (P11021 19-654): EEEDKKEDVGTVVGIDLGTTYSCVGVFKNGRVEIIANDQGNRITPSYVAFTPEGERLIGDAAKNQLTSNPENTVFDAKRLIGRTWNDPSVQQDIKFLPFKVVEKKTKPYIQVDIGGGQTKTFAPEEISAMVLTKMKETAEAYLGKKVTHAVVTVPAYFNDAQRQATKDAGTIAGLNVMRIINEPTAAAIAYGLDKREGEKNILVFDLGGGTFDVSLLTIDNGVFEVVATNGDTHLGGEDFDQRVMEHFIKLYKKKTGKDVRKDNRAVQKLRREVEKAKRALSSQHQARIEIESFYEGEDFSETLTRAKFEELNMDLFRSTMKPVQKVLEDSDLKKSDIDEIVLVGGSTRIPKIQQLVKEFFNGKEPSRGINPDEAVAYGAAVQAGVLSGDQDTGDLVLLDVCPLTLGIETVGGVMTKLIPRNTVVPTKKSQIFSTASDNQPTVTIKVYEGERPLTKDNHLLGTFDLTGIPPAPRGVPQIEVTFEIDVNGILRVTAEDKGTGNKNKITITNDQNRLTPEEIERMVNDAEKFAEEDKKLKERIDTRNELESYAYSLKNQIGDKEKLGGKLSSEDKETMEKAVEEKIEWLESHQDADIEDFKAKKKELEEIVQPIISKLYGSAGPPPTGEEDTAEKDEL

B1: Grp78-scFv clone-19 (scFv)
scFv: EVQLVESGGGVVQPGRSLRLSCAASGFTFSSYGMHWVRQAPGKGLEWVAVISYDGSNKYYADSVKGRFTISRDNSKNTLYLQMNSLRAEDTAVYYCARKINSTKEVWGQGTLVTVSSGGGGSGGGGSGGSALQSVLTQPPSASGTPGQRVTISCSGSSSNIGSNYVYWYQQLPGTAPKLLIYRNNQRPSGVPDRFSGSKSGTSASLAISGLRSEDEADYYCAAWDDSLNPLVVFGGGTKLTVLGAAAHHHHHHGAAEQN
notes: Tested as soluble scFv made in E. coli HB2151 and purified on a Ni column, apparent size about 29 kDa; It was detected through its c-myc tag with mAb 9E10; also called anti-Grp78 scFv-19; scFv-19
B1: binds.
